Reference: article PMC8105722 (The Journal of Experimental Medicine, 2021)

Target: the molecule itself
Experiment: crystal structure

B1: Rv0812 (Mycobacterium tuberculosis bifunctional aminodeoxychorismate lyase / D-amino acid transaminase) (enzyme)
chain: MVVTLDGEILQPGMPLLHADDLAAVRGDGVFETLLVRDGRACLVEAHLQRLTQSARLMDLPEPDLPRWRRAVEVATQRWVASTADEGALRLIYSRGREGGSAPTAYVMVSPVPARVIGARRDGVSAITLDRGLPADGGDAMPWLIASAKTLSYAVNMAVLRHAARQGAGDVIFVSTDGYVLEGPRSTVVIATDGDQGGGNPCLLTPPPWYPILRGTTQQALFEVARAKGYDCDYRALRVADLFDSQGIWLVSSMTLAARVHTLDGRRLPRTPIAEVFAELVDAAIVSDR
notes: also called Mtb Rv0812; WT-Rv0812
- stoichiometry N: 2
